Laboratory results: the supplement of paper PMC9732359
± gives the uncertainty stated by the source.

Experiment: protein stability index of a GFP-peptide fusion (yeast GPS) (PSI 1-4); higher = more stable; sorted into four equal gates, so the index is relative within each strain
Summary of the method: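 The protein stability index combines read frequencies across sorting gates, each weighted by its gate number and then summed. To obtain those frequencies, a pooled yeast library of GFP fusions to tiled 17-residue yeast protein peptides, on a plasmid also expressing Cherry, was grown to mid-log phase in leucine-free medium. The cells were sorted into four equal gates by GFP/Cherry ratio before plasmid amplification by PCR and Illumina sequencing.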

Sequence	protein stability index (doa10∆)	protein stability index (pdr5∆)	protein stability index (san1∆)	protein stability index (ubr1∆)
SNTVNANNYSSNIGNNS [YDL088C/ASM4]	3.17 ± 0.14	3.39 ± 0.14	3.33 ± 0.12	3.19 ± 0.066
LSQLCAVPLQIVSPQSN [RPO21]	1.88 ± 0.063	1.91 ± 0.058	1.9 ± 0.084	1.87 ± 0.04
DELELEDAIHIALLTLK [PRE8]	3.04 ± 0.076	3.11 ± 0.065	3.07 ± 0.062	3.15 ± 0.087
SSEFVSQDTKVICSVTG [RRP46]	2.67 ± 0.054	2.37 ± 0.056	2.43 ± 0.076	2.58 ± 0.059
SIGYETELKKITDKTIK [IRR1]	3.06 ± 0.07	3.12 ± 0.066	2.99 ± 0.062	3 ± 0.082
SDVLLFQLPTTCVSMAP [RGR1]	2.25 ± 0.047	1.83 ± 0.036	1.87 ± 0.05	1.77 ± 0.028
HFVQEEPLAFYLEESFT [RGR1]	2.32 ± 0.044	2.43 ± 0.039	2.67 ± 0.04	2.69 ± 0.031
KRADISKRRITEELSIT [SMC1]	1.46 ± 0.086	1.73 ± 0.078	1.72 ± 0.12	1.83 ± 0.08
ETNGYDPFSIYGFSNKE [SNF5]	1.64 ± 0.047	1.51 ± 0.075	2.12 ± 0.083	2.03 ± 0.063
AECISLICSIGLHSSEY [ECM29]	1.98 ± 0.053	2.38 ± 0.051	2.2 ± 0.092	2.62 ± 0.048
KDKFNQIPLHRAASVGS [NAS6]	1.81 ± 0.074	2.13 ± 0.079	2.05 ± 0.15	2.26 ± 0.082
SKLNELKKELKLLAKEL [SMC2]	2.92 ± 0.11	2.9 ± 0.12	–	3.09 ± 0.15
PWGDYLQLETPAEVGRA [BRR2]	1.25 ± 0.062	1.8 ± 0.09	1.47 ± 0.088	1.19 ± 0.049
AAEQQSKAFKESSDFGA [SRP54]	2.8 ± 0.057	2.3 ± 0.049	2.58 ± 0.082	2.34 ± 0.057
IVQIDATPFRQWFEAHY [RPS8A]	2.425 ± 0.022	2.797 ± 0.025	2.626 ± 0.023	2.697 ± 0.019
AKSTVETFISSMTATAD [RIP1]	1.89 ± 0.073	2.13 ± 0.077	2.93 ± 0.061	1.48 ± 0.05
PFQLDVADMLTPEYAAE [UBP6]	2.95 ± 0.17	2.65 ± 0.19	2.7 ± 0.085	2.77 ± 0.16
YRSHIFATNEERQMNFL [SWI3]	3.24 ± 0.091	2.69 ± 0.081	2.59 ± 0.081	2.72 ± 0.051
AKIYPGRGTLFVRGDSK [RPL24A]	1.1 ± 0.075	1.77 ± 0.12	1.97 ± 0.15	2.04 ± 0.085
MTRSSVLADALNAINNA [RPS22A]	2.86 ± 0.052	3.27 ± 0.056	2.72 ± 0.054	2.99 ± 0.045
EQIDENWSKEDLQKLLK [SWI3]	3.16 ± 0.067	3.08 ± 0.085	3.02 ± 0.073	3.26 ± 0.058

Sequence	protein stability index (doa10∆)	protein stability index (pdr5∆)	protein stability index (san1∆)	protein stability index (ubr1∆)
TESIALSSMRFKPSQEP [RRI1]	2.85 ± 0.072	3.31 ± 0.064	3.3 ± 0.076	2.86 ± 0.057
RVMKSLSINEKDFVTMA [YCG1]	2.35 ± 0.073	2.06 ± 0.052	2.1 ± 0.082	2.16 ± 0.042
TYASVTGLFTLERTDLK [RPN7]	3.43 ± 0.23	–	–	2.62 ± 0.21
RIATEASKLAAYNKKST [HTB1]	3.21 ± 0.097	2.47 ± 0.24	–	2.94 ± 0.098
DEHNELMRQALAIKDSK [RPO21]	2.61 ± 0.05	2.93 ± 0.063	2.29 ± 0.058	2.91 ± 0.044
MTSENPDVLLSRVINVV [RRP6]	1.39 ± 0.12	1.61 ± 0.083	1.49 ± 0.12	2.27 ± 0.14
KEEELIERDSLVDDENE [BRN1]	–	–	–	3.25 ± 0.15
KDLTLCRYSCLALERMV [YCS4]	2.58 ± 0.23	2.36 ± 0.2	–	1.79 ± 0.13
TPSFSFGAKSDENKAGA [YJL041W/NSP1]	3.51 ± 0.28	3.19 ± 0.16	3.17 ± 0.15	–
DLEEAYATQVKTDNTVD [RPT3]	2.19 ± 0.18	2.58 ± 0.091	2.47 ± 0.14	2.79 ± 0.1
VHDKILEDLVFPTEIVG [RPS7A]	3.3 ± 0.13	3.15 ± 0.076	3.27 ± 0.061	3.31 ± 0.1
IYRTTRQDGSYTYHSTN [ARP9]	2.61 ± 0.08	2.74 ± 0.083	2.27 ± 0.093	2.53 ± 0.058
GSNVLKSGKTIVITSIT [RRP43]	1.72 ± 0.063	2.57 ± 0.061	2.41 ± 0.067	2.33 ± 0.066
GSEVRLRDDTLPKAWIS [COR1]	2.49 ± 0.053	2.75 ± 0.065	2.72 ± 0.075	2.69 ± 0.06
SIQEQIQEFQGNPYIEL [SNF5]	3.16 ± 0.071	3.3 ± 0.08	3.49 ± 0.082	3.31 ± 0.059
SKIIVFPRNGKAPEAEQ [RPL13A]	3.19 ± 0.12	3.09 ± 0.12	3.06 ± 0.062	2.98 ± 0.15
GVHDGEVEPALLLLQDY [RPN1]	3.13 ± 0.2	3.46 ± 0.17	–	2.44 ± 0.24
KLYTFLARRTDAPFNKV [RPL18A]	1.78 ± 0.052	1.65 ± 0.042	1.97 ± 0.079	1.89 ± 0.068
PQKSSSKGFVFNSVQKK [YAR002W/NUP60]	1.65 ± 0.088	1.4 ± 0.1	1.83 ± 0.14	1.18 ± 0.13
YIIQGSNTNDNISIITL [RGR1]	2.77 ± 0.075	2.29 ± 0.083	2.19 ± 0.15	2.22 ± 0.063
NGITLALIDAGISMFDY [SKI6]	1.38 ± 0.068	1.51 ± 0.042	1.59 ± 0.14	1.56 ± 0.038

Sequence	protein stability index (doa10∆)	protein stability index (pdr5∆)	protein stability index (san1∆)	protein stability index (ubr1∆)
IELSVPDRQSMDSRVAH [SRB5]	3.11 ± 0.17	2.96 ± 0.14	3.17 ± 0.13	3.16 ± 0.089
KKENLTRDETVSLIKKY [YML103C/NUP188]	2.82 ± 0.065	2.83 ± 0.1	2.55 ± 0.096	2.6 ± 0.078
STKRVTKHPSLKTLTHK [POP7]	2.56 ± 0.062	2.78 ± 0.06	2.56 ± 0.083	2.64 ± 0.061
FDDLLKPVYKGKKLTDE [RET1]	–	2.85 ± 0.27	3.32 ± 0.12	–
ADGSSYMEQGNNKIITL [SKI6]	2.79 ± 0.044	3.07 ± 0.059	2.82 ± 0.04	3.015 ± 0.029
TFVERLPNETINDRNDR [DIS3]	–	–	–	2.28 ± 0.11
LSAEYLVILKPDLNIDR [SIN4]	2.97 ± 0.063	3.1 ± 0.1	2.97 ± 0.058	2.94 ± 0.045
LLSLNSVRSLQKRIENG [SRP68]	2.13 ± 0.069	1.65 ± 0.063	2.1 ± 0.091	2.25 ± 0.078
RGGFGGRNRGRPNRRGP [RPS2]	3.37 ± 0.095	3.28 ± 0.14	3.44 ± 0.077	3.4 ± 0.13
DDRGPVLESIVARTFWA [BRR2]	2.67 ± 0.09	2.07 ± 0.057	2.9 ± 0.11	2.85 ± 0.077
VNNPQEETSHLLTVTPG [RPN10]	2.62 ± 0.13	2.84 ± 0.08	2.99 ± 0.14	2.86 ± 0.066
QIFCVFSGKGVHKLRHY [GRR1]	2.67 ± 0.068	2.88 ± 0.061	3.09 ± 0.066	2.76 ± 0.053
SAPPPALPHVEINQVSL [RGR1]	2.46 ± 0.074	2.96 ± 0.11	2.48 ± 0.09	2.33 ± 0.052
LKCAERQLTSMEFSNLY [NUT1]	2.06 ± 0.054	1.87 ± 0.034	1.65 ± 0.072	2.17 ± 0.032
FVSESPSFVKSGKLRDY [ISW2]	2.41 ± 0.059	2.11 ± 0.051	2.28 ± 0.049	2.7 ± 0.044
LQLAPGAHLGRFVIWTE [RPL4A]	3.62 ± 0.21	2.98 ± 0.22	3.18 ± 0.099	3.27 ± 0.08
KKWNDLKNKNFKCQEKD [SIR2]	3.46 ± 0.23	3.34 ± 0.14	3.37 ± 0.072	3.11 ± 0.12
FISSNDAFNMLSLTTVP [SNF6]	1.7 ± 0.054	2.44 ± 0.063	2.31 ± 0.11	2 ± 0.06
WRSKRIEQLFPVRPVRV [RPC53]	3.25 ± 0.14	3.11 ± 0.087	3.21 ± 0.071	3.08 ± 0.069
QLDAYGEKKVGSNGELF [SWP82]	3.28 ± 0.13	3.29 ± 0.089	3.62 ± 0.071	3.32 ± 0.12
MAVKTGIAIGLNKGKKV [RPL36B]	–	1.49 ± 0.2	–	–

Sequence	protein stability index (doa10∆)	protein stability index (pdr5∆)	protein stability index (san1∆)	protein stability index (ubr1∆)
YFSVTTARRNVSGDAAA [SWI3]	1.9 ± 0.059	2.23 ± 0.063	2.33 ± 0.08	1.88 ± 0.047
TVASSKVGYTLPSHIIS [RPL4A]	3.19 ± 0.076	3.02 ± 0.052	3.09 ± 0.035	3.25 ± 0.043
LICSIGLHSSEYKLRSL [ECM29]	2.03 ± 0.046	2.41 ± 0.05	2.26 ± 0.07	2.56 ± 0.038
FSFGAKANEKKESDESK [YJL041W/NSP1]	2.58 ± 0.12	3.38 ± 0.089	3.52 ± 0.078	3.18 ± 0.18
IEKFEQVPDSLDDQIFV [RPN6]	3.31 ± 0.079	3.35 ± 0.065	3.53 ± 0.053	3.27 ± 0.079
LQNNSDSESDSDSETNH [SKP1]	2.76 ± 0.065	3.19 ± 0.074	2.84 ± 0.055	2.82 ± 0.082
RRRRLKKVEEEENAATL [RPB4]	3.17 ± 0.2	3.75 ± 0.26	–	–
LKKIRAHRGIRHFWGLR [RPS18A]	3.03 ± 0.11	2.74 ± 0.078	2.44 ± 0.079	2.62 ± 0.05
KLLFQELLSMNIAPRLR [RET1]	1.35 ± 0.052	1.31 ± 0.049	1.35 ± 0.089	1.24 ± 0.042
SGVMDKSVLGDGKKHSV [RPO31]	3.73 ± 0.21	3.71 ± 0.28	3.31 ± 0.2	–
KSKLFEWKSEFVVPTFG [SNM1]	1.57 ± 0.058	1.63 ± 0.067	2.6 ± 0.08	1.32 ± 0.067
NSASSAPTPAAPGASVP [SWI1]	3.04 ± 0.063	3.16 ± 0.056	3.21 ± 0.057	3.03 ± 0.055
KEPRLVIVTDPRSDAQA [RPS0A]	2.56 ± 0.14	3.06 ± 0.087	2.94 ± 0.064	3.05 ± 0.1
SSPLGFEETKLSTTPTK [SIR4]	2.57 ± 0.053	2.71 ± 0.063	2.6 ± 0.054	2.67 ± 0.058
LSGNPLTSVTNDICSVE [SIR4]	2.54 ± 0.068	2.95 ± 0.064	3.09 ± 0.058	2.96 ± 0.062
KRVHTLLTLIVREYEQP [ISW2]	3.28 ± 0.23	2.55 ± 0.15	3.06 ± 0.15	3.46 ± 0.18
AICRYANVIKALAFCEI [RRP4]	1.42 ± 0.069	2.04 ± 0.099	1.66 ± 0.18	2.22 ± 0.072
TNKGPLAQIWLASNMSN [MCD1]	2.33 ± 0.096	1.26 ± 0.054	1.26 ± 0.2	1.17 ± 0.056
MVGLVDPDKLKPNDLVG [RPT5]	2.87 ± 0.097	2.94 ± 0.14	2.94 ± 0.062	2.75 ± 0.069
DPASFYLFDEIDAALDK [SMC3]	2.89 ± 0.075	3.02 ± 0.082	2.61 ± 0.083	2.72 ± 0.046
QVEYALESISHAGTAIG [PRE9]	2.34 ± 0.077	2.33 ± 0.083	2.4 ± 0.082	2.52 ± 0.07
